Experiments:
SHP2-C SH2 = assay: SH2 binding enrichment of the phosphorylated peptide, bacterial display (enrichment ratio); higher = better substrate or ligand; peptides without Tyr show the background
c-Src SH2 = assay: as above
Grb2 SH2 = Grb2 SH2 (UniProt P62993); assay: as above
Hck = Hck (UniProt P08631); assay: phosphorylation enrichment, bacterial display (enrichment ratio); higher = better substrate or ligand; peptides without Tyr show the background
FGFR3 = FGFR3 (UniProt P22607); assay: as above
Jak2 = Jak2 (UniProt O60674); assay: as above
Fes = Fes (UniProt P07332); assay: as above
MERTK = MERTK (UniProt Q12866); assay: as above
EPHB1 = EPHB1 (UniProt P54762); assay: as above
c-Src = assay: as above
AncSZ = assay: as above
Fer (mouse) = assay: as above
c-Abl (mouse) = assay: as above
EPHB2 = EPHB2 (UniProt P29323); assay: as above
FGFR1 = FGFR1 (UniProt P11362); assay: as above
Fyn = Fyn (UniProt P06241); assay: as above
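Wherever SH2 binding enrichment of the phosphorylated peptide, bacterial display is given: peptide library displayed on the E. coli surface as eCPX fusions, selected cells deep-sequenced, score is each peptide's frequency after selection divided by its frequency in the input.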
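Wherever phosphorylation enrichment, bacterial display is given: 11-residue human phosphosite peptides and single-mutation variants displayed on the E. coli surface, counted by deep sequencing, each peptide's frequency after selection divided by its frequency in the unselected input library; frequency after pTyr selection over input frequency; kinase dosed for 20-30% of maximal phosphorylation in three min.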

Sequence of MERTK (Q12866 whole entry, looked up): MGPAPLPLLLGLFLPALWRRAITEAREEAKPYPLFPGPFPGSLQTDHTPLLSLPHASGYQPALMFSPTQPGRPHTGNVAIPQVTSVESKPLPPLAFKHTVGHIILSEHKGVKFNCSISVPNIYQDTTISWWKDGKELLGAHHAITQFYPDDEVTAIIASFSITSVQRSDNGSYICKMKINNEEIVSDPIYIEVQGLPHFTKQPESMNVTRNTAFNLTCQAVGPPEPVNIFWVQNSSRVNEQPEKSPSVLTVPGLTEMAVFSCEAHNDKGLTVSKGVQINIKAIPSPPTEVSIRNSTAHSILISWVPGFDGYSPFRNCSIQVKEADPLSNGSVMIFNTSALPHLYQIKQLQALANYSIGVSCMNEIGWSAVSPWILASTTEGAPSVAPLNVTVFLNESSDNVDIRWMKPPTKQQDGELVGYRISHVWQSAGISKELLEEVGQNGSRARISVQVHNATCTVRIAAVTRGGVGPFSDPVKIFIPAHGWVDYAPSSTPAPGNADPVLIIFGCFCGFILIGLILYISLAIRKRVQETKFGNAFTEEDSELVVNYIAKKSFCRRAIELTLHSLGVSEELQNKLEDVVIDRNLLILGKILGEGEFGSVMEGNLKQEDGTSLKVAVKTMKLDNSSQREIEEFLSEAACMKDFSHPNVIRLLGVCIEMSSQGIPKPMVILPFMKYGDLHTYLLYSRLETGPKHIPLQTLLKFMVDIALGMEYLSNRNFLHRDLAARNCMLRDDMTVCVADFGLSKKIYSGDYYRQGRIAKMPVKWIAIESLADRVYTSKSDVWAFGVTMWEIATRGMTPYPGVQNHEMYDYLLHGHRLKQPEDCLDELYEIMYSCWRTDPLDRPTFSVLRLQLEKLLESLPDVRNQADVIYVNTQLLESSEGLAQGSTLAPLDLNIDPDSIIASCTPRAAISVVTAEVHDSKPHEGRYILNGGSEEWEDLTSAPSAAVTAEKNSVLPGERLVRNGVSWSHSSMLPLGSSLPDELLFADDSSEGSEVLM
Sequence of EPHB2 (P29323 whole entry, looked up): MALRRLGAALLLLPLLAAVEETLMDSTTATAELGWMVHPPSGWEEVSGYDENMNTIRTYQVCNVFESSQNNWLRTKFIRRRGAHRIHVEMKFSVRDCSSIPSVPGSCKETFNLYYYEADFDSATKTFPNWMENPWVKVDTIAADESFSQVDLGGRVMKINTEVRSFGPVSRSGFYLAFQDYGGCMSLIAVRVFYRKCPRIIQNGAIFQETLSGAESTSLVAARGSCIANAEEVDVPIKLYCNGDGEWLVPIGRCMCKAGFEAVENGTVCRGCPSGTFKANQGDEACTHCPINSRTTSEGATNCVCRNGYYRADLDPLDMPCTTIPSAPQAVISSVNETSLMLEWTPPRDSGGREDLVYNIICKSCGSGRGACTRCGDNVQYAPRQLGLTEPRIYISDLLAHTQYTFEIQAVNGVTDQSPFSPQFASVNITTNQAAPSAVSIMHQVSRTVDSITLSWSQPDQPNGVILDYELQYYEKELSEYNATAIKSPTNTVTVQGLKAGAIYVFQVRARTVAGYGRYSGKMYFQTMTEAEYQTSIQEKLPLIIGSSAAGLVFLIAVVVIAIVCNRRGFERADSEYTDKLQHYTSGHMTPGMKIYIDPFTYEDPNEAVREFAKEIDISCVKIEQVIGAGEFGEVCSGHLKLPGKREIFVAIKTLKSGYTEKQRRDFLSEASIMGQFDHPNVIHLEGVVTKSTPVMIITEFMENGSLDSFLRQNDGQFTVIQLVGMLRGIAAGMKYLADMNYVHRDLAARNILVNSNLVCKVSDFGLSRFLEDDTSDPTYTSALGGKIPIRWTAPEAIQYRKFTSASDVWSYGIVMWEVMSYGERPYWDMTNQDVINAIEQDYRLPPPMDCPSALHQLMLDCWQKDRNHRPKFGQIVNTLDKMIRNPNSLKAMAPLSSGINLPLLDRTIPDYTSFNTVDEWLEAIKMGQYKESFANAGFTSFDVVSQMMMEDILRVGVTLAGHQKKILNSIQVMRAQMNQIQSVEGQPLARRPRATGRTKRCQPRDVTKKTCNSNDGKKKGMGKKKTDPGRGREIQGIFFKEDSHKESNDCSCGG
Sequence of FGFR3 (P22607 whole entry, looked up): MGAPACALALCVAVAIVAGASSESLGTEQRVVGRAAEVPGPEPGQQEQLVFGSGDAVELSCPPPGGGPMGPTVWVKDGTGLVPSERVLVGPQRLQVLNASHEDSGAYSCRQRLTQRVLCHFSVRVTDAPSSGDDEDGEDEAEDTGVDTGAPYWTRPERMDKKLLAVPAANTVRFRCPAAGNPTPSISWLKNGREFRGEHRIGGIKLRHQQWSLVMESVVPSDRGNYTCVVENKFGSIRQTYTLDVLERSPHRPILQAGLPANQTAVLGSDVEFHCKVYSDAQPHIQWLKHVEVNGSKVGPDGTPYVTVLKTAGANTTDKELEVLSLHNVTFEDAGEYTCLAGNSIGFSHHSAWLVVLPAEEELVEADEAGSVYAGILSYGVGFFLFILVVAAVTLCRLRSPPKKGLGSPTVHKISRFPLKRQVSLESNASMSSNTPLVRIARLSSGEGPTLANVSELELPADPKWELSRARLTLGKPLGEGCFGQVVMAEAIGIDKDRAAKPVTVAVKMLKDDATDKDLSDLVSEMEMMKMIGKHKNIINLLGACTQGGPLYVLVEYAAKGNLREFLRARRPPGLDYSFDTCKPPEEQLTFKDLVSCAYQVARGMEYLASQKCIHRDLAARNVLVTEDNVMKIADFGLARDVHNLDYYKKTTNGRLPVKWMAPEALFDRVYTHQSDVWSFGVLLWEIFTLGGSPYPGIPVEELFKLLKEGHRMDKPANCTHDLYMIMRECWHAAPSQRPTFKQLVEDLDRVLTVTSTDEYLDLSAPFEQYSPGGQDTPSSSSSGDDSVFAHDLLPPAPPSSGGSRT
Sequence of Fes (P07332 whole entry, looked up): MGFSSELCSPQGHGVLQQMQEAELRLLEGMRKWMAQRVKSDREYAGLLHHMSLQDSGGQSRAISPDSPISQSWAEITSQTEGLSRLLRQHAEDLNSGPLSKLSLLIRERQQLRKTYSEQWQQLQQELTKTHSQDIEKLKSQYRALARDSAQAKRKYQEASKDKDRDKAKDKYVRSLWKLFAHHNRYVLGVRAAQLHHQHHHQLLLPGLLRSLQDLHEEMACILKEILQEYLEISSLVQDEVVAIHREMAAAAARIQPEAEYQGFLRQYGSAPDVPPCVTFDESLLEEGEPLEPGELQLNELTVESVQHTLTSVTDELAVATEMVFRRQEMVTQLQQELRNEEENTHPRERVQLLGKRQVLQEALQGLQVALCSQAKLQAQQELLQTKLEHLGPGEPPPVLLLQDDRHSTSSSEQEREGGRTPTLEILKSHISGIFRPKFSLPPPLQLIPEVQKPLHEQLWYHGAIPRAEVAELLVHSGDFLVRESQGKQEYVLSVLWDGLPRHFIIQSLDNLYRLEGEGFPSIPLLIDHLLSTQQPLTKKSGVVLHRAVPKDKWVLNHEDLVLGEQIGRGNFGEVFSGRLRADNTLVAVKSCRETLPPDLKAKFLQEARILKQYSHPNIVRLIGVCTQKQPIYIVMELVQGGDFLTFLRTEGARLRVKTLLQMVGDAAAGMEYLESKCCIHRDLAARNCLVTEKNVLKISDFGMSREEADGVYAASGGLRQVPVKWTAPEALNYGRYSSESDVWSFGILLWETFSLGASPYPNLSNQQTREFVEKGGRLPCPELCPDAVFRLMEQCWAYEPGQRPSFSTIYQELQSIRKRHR
Sequence of Hck (P08631 whole entry, looked up): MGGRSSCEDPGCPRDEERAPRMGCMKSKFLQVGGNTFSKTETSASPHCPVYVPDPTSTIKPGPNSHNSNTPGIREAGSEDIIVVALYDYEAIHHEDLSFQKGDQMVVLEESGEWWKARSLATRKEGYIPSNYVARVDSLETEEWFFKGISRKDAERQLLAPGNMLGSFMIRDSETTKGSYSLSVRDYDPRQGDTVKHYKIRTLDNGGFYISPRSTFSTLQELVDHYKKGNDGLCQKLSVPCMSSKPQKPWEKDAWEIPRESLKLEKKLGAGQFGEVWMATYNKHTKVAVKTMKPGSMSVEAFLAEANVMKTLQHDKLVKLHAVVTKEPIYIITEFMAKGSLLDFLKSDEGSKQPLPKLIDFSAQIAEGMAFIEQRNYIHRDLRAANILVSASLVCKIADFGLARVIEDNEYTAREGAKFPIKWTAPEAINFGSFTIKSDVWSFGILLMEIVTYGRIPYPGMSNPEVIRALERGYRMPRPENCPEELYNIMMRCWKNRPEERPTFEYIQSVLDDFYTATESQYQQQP
Sequence of FGFR1 (P11362 whole entry, looked up): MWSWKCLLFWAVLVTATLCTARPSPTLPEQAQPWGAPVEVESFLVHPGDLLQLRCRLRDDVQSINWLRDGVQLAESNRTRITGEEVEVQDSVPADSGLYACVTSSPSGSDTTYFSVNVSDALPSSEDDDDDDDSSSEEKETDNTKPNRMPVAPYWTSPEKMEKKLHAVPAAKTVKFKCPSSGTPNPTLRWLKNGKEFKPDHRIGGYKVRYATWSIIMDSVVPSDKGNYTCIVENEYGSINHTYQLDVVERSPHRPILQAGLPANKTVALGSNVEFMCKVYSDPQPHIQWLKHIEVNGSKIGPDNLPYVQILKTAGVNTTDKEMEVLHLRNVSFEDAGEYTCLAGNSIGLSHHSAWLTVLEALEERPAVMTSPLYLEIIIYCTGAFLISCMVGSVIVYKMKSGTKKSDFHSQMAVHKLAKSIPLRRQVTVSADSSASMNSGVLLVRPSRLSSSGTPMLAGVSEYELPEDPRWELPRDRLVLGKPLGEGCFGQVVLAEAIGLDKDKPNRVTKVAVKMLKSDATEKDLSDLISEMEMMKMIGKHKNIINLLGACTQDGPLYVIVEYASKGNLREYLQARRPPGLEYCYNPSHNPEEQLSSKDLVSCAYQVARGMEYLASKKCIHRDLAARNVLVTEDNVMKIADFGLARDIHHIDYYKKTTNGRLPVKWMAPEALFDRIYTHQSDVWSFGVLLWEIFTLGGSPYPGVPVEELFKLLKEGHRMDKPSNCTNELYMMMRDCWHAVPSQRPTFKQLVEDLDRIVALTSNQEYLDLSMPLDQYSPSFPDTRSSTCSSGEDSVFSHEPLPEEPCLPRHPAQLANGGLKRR

SH2 binding enrichment (SHP2-C SH2) | SH2 binding enrichment (c-Src SH2) | SH2 binding enrichment (Grb2 SH2) | Sequence | phosphorylation enrichment (Hck) | phosphorylation enrichment (FGFR3) | phosphorylation enrichment (Jak2) | phosphorylation enrichment (Fes) | phosphorylation enrichment (MERTK) | phosphorylation enrichment (EPHB1) | phosphorylation enrichment (c-Src) | phosphorylation enrichment (AncSZ) | phosphorylation enrichment (Fer (mouse)) | phosphorylation enrichment (c-Abl (mouse)) | phosphorylation enrichment (EPHB2) | phosphorylation enrichment (FGFR1) | phosphorylation enrichment (Fyn)
0.936 | 0.745 | 1.07 | VTRLWYPVCFG [ITK_Y336_R335W] | 0.488 | 1.36 | 1.02 | 1.35 | 0.412 | 0.66 | 0.403 | 1.17 | 0.509 | 0.89 | 0.699 | 1.11 | 0.502
0.866 | 0.518 | 0.822 | VVDVTYDDVPI [FLNB_Y1308_E1305D] | 1.3 | 0.697 | 0.951 | 1.27 | 0.511 | 2.21 | 1.05 | 1.38 | 3.96 | 0.801 | 1.23 | 0.506 | 1.04
0.529 | 0.519 | 0.819 | VVEVTYDDVPI [FLNB_Y1308] | 1.82 | 0.947 | 1.1 | 1.56 | 0.688 | 1.57 | 1.3 | 2.02 | 5.94 | 0.805 | 1.07 | 0.742 | 1.76
1.56 | 1.22 | 1.59 | VVIVLYFSLWK [SLC6A2_Y249] | 0.42 | 0.459 | 0.64 | 1.13 | 0.39 | 0.254 | 0.348 | 0.703 | 0.314 | 0.942 | 0.453 | 0.486 | 0.241
0.609 | 0.369 | 0.637 | VVVTKYCKEEL [ATP7B_Y1078_A1074V] | 0.546 | 0.824 | 0.968 | 1.37 | 0.447 | 0.639 | 0.492 | 1.08 | 0.554 | 0.873 | 0.658 | 0.58 | 0.568
1.36 | 0.992 | 1.1 | VYLGAYDCFLP [SLC22A5_Y486_R488C] | 5.14 | 1.09 | 1.28 | 1.41 | 7.36 | 5.46 | 6.4 | 2.18 | 7.23 | 1.77 | 8.08 | 1.15 | 7.34
1.04 | 0.502 | 0.931 | WDLPEYSFKDP [ITGA3_Y237_S235P_YF] | 1.19 | 0.836 | 1.18 | 1.25 | 0.381 | 0.558 | 1.02 | 2.37 | 0.421 | 0.871 | 0.571 | 0.486 | 3.1
2.25 | 0.893 | 1.02 | WFPANYVKLLS [ITSN1_Y1132] | 0.549 | 0.825 | 1.51 | 0.841 | 0.569 | 4.12 | 0.399 | 0.785 | 0.518 | 0.596 | 1.52 | 0.763 | 0.419
0.767 | 1.2 | 0.86 | WHHTFYNELCV [ACTC1_Y93_R97C] | 1.18 | 0.979 | 1.03 | 1.23 | 0.905 | 0.793 | 0.73 | 1.19 | 1.04 | 0.761 | 0.658 | 0.881 | 0.574
1.52 | 1.9 | 1.2 | WHHTFYNELRV [ACTA1_Y93] | 0.997 | 0.645 | 0.783 | 1.01 | 0.587 | 0.558 | 0.546 | 0.875 | 0.54 | 0.657 | 0.483 | 0.552 | 0.502
1.48 | 1.97 | 1.78 | WKGSWYSMRKM [FGB_Y475] | 0.523 | 0.716 | 0.847 | 1.11 | 0.499 | 0.588 | 0.538 | 1.07 | 0.473 | 0.71 | 0.513 | 0.676 | 0.49
0.704 | 1.34 | 0.902 | YCRHNYGAVES [HLA-DRB1_Y112_V114A] | 0.549 | 0.659 | 0.739 | 0.678 | 0.549 | 0.566 | 0.503 | 0.658 | 0.514 | 0.696 | 0.623 | 0.519 | 0.416
0.564 | 2.41 | 0.733 | YEEDSYSHIMA [FDPS_Y388] | 0.976 | 1.18 | 1.06 | 1.26 | 0.561 | 0.67 | 0.813 | 1.85 | 1.48 | 0.663 | 0.714 | 1.35 | 0.64
0.936 | 0.806 | 1.21 | YGIAQYCCRMG [LRRK2_Y2023] | 1.02 | 0.583 | 0.482 | 0.762 | 4.29 | 1 | 0.665 | 0.983 | 0.902 | 3.48 | 11.2 | 0.605 | 0.8
0.793 | 0.438 | 0.734 | YGSSSYGGAGG [RPA2_Y14] | 0.39 | 0.409 | 0.476 | 0.626 | 0.359 | 0.714 | 0.442 | 0.457 | 0.381 | 0.899 | 0.305 | 0.35 | 0.414
0.507 | 0.49 | 0.877 | YGSSSYRGAGG [RPA2_Y14_G15R] | 0.443 | 0.409 | 0.528 | 0.483 | 0.369 | 0.393 | 0.412 | 0.491 | 0.465 | 0.623 | 0.334 | 0.343 | 0.386
0.948 | 0.761 | 1 | YIPSNYVAEDR [FRK_Y104] | 0.501 | 0.72 | 0.721 | 0.954 | 0.535 | 0.519 | 0.536 | 0.921 | 0.434 | 0.685 | 0.623 | 0.634 | 0.523
0.832 | 0.534 | 0.77 | YKIYRYTLNDN [FN1_Y1975_L1974R] | 0.573 | 0.617 | 0.905 | 1.04 | 0.331 | 0.467 | 0.415 | 1.13 | 0.406 | 0.688 | 0.557 | 0.439 | 0.368
0.788 | 0.509 | 0.795 | YLGEEYVKAVG [TF_Y674] | 0.329 | 0.523 | 0.698 | 0.823 | 0.403 | 0.454 | 0.444 | 0.908 | 0.393 | 0.645 | 0.391 | 0.446 | 0.465
1.9 | 2.21 | 11.7 | YLTSSYINIST [IL23R_Y178] | 0.637 | 1.29 | 1.81 | 1.18 | 0.648 | 0.735 | 0.466 | 0.978 | 0.567 | 1.11 | 0.588 | 1.27 | 0.488
0.591 | 1.85 | 2.52 | YNNYGYGNDGF [HNRNPH3_Y161] | 0.455 | 0.766 | 0.673 | 0.924 | 0.759 | 3.61 | 0.505 | 0.789 | 0.566 | 0.547 | 6.45 | 0.766 | 0.577
1.01 | 0.668 | 0.967 | YPSLPYSPVSS [CAMKK2_Y128_C123Y] | 0.62 | 0.721 | 0.489 | 0.683 | 0.514 | 0.436 | 0.546 | 0.663 | 3.13 | 0.564 | 0.401 | 0.873 | 0.458
2.33 | 0.372 | 0.709 | YRAVKYLQMVG [AVPR2_Y117_C112Y] | 0.584 | 0.653 | 0.766 | 0.827 | 0.385 | 0.582 | 0.36 | 0.95 | 0.429 | 0.621 | 0.539 | 0.552 | 0.397
0.781 | 0.577 | 0.72 | YSIDHYLGKEM [G6PD_Y202_R198S] | 0.563 | 0.617 | 0.828 | 0.671 | 1.3 | 0.509 | 0.538 | 0.773 | 0.455 | 0.555 | 0.561 | 0.589 | 0.568
0.697 | 0.592 | 1.03 | YTGDIYSSSNL [LZTR1_Y141_N143S] | 7.13 | 0.626 | 0.504 | 0.74 | 3.2 | 1.27 | 4.97 | 0.917 | 2.91 | 1.97 | 1.53 | 0.613 | 6.08
0.638 | 0.595 | 0.785 | YTHSDYQYSQR [PKP2_Y166] | 0.391 | 0.507 | 0.757 | 0.594 | 0.474 | 0.479 | 0.434 | 0.892 | 0.42 | 0.444 | 0.482 | 0.467 | 0.403
0.645 | 1.63 | 2.09 | YTNELYMMMRD [FGFR1_Y730_C725Y] | 2.85 | 2.27 | 1.35 | 1.35 | 5.02 | 5.42 | 2.18 | 1.68 | 0.982 | 0.766 | 3.13 | 2.52 | 1.4

Sequence | SH2 binding enrichment (SHP2-C SH2) | SH2 binding enrichment (c-Src SH2) | SH2 binding enrichment (Grb2 SH2) | phosphorylation enrichment (Hck) | phosphorylation enrichment (FGFR3) | phosphorylation enrichment (Jak2) | phosphorylation enrichment (Fes) | phosphorylation enrichment (MERTK) | phosphorylation enrichment (EPHB1) | phosphorylation enrichment (c-Src) | phosphorylation enrichment (AncSZ) | phosphorylation enrichment (Fer (mouse)) | phosphorylation enrichment (c-Abl (mouse)) | phosphorylation enrichment (EPHB2) | phosphorylation enrichment (FGFR1) | phosphorylation enrichment (Fyn)
YDRREYSRFEK [ITGB7_Y758] | 0.813 | 0.737 | 1.02 | 0.673 | 0.554 | 0.925 | 0.957 | 0.512 | 0.486 | 0.702 | 0.902 | 0.545 | 0.96 | 0.483 | 0.459 | 0.498
YEEDSYVKRSQ [RET_Y905] | 0.514 | 1.43 | 0.719 | 0.49 | 0.775 | 1.09 | 1.23 | 0.51 | 0.626 | 0.544 | 1.17 | 0.529 | 0.714 | 0.643 | 0.495 | 0.489
YSGDYYRIQGR [DDR2_Y741] | 0.673 | 0.552 | 1.01 | 1.68 | 8.65 | 8.46 | 0.846 | 5.04 | 5.47 | 2.31 | 1.82 | 0.429 | 1.76 | 2.72 | 12.1 | 1.04

— the supplement of paper PMC10065799, “High-throughput profiling of sequence recognition by tyrosine kinases and SH2 domains using bacterial peptide display” (eLife, 2023)
